“And” between values parts separate entries of the source, which are not always exact repeats. Identical values can stand only once.
Molecular target: horseradish peroxidase (HRP) (horseradish) (UniProt P00433)
Assay: affinity precipitation at varied ligand to HRP ratio; peroxidase activity assay

Chain of UniProt P00433 (P00433 31-338): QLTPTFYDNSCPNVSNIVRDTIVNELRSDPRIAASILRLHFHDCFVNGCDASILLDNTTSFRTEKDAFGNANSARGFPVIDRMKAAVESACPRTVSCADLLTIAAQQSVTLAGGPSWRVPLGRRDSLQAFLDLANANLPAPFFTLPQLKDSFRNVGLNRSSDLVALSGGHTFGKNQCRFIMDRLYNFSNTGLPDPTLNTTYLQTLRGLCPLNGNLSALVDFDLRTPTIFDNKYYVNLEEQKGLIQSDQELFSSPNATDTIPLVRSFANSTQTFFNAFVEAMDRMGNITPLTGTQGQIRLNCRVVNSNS

Which molar excess of ligand at which full recovery was approached (mol ligand per mol HRP) does the source give for “RSL-ELP40 (fucose lectin from Ralstonia solanacearum fused by a 10 amino acid glycine rich linker to (designed binder)” here?
The molar excess of ligand at which full recovery was approached (mol ligand per mol HRP) was 15 and 20.
